In PMC10140475:

Legend:
Experiment in all cases: SPR
[1] = molecular target: VRC01 (germline); details: antibody concentrations 0.98 nM-1,000 nM; parent: N/A
[2] = molecular target: VRC01 (mature); details: antibody concentrations 0.98 nM-1,000 nM; parent: <10
[3] = molecular target: CH31 (mature); details: antibody concentrations 0.98 nM-1,000 nM; parent: <1
[4] = molecular target: CH31 (germline); details: antibody concentrations 0.98 nM-1,000 nM; parent: N/A
[5] = molecular target: eOD-GT8

Kd [5] | Substance | Kd [1] | Kd [2] | Kd [3] | Kd [4]
– | BG505 SOSIP trimer (fully glycosylated) (from UniProt Q2N0S6) | 670 nM | < 0.1 nM | 0.14 nM | 4000 nM
11900 nM | gl-CH31 | – | – | – | –
